Measurements published in patent US20190270793A1 (Janssen / Centocor, published 2019).
Where a chain is given by its changes, count along the chain named.

What was measured:
[1] = biological target: T1, PHF-tau (paired helical filament-tau), partially purified from postmortem cortex of an Alzheimer patient (human, UniProt P10636-8 2-441, limits assumed, hyperphosphorylated (sites not given)); assay: SPR (ProteOn XPR36 or Biacore T200)
T1 construct: This is an aggregated, hyperphosphorylated brain-derived preparation, not a single defined chain
T1 sequence (P10636 other isoform, or with tags, fused parts or gaps limits assumed): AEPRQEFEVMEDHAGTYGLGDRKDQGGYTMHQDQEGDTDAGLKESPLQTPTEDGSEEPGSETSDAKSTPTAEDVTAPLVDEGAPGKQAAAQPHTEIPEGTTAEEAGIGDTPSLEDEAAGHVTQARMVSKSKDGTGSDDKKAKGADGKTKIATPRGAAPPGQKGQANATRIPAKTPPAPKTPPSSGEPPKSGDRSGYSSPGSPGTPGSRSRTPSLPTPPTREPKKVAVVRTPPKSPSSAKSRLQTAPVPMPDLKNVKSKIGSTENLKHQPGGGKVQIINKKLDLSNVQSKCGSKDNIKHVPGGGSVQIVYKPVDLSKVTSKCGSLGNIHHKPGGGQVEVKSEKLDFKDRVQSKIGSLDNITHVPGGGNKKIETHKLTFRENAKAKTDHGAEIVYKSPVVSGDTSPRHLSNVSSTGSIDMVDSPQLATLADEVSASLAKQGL

[2] = biological target: T2, soluble tau (control tau; recombinant 2N4R tau, SEQ ID NO:31) (human, UniProt P10636 2-758); assay: direct ELISA on 2N4R tau coated at 1 ng/mL, O.D. 450 nm
T2 construct: also called Sol-tau; recombinant WT tau
T2 sequence (P10636 other isoform, or with tags, fused parts or gaps limits assumed): as above
Method: (§1) Binding to recombinant WT (2N4R; SEQ ID NO:31) tau was analyzed by ELISA where full-length Tau protein (1 ng/mL or 10 ng/mL) was directly coated to the plate and incubated with different concentrations of either recombinantly- or hybridoma produced PT82 antibody (FIG. 2). After incubation with antibodies, plates were again washed and 50 μL per well of HRPO labelled anti-mouse antibody (GE Healthcare) (diluted 1:10000 in blocking buffer) was added. After another washing step detection was performed with “One step” TMB (Thermo Scientific) according to the manufacturers' instructions. Plates were analysed in EnVision® 2102 Multilabel Reader (Perkin Elmer, Waltham, Mass., USA). Binding curves were generated using GraphPad Prism7.0 software. […] No substantial difference has been observed between binding profiles of recombinant and hybridoma produced antibodies.

[3] = biological target: T2, soluble tau (control tau; recombinant …); assay: direct ELISA on 2N4R tau coated at 10 ng/mL, O.D. 450 nm
Method: as §1

[4] = biological target: T3, 103 122 …; assay: pepscan-based ELISA on the array of linear 20-mer Tau441 peptides
T3 construct: Linear 20-mer made on the solid support of the pepscan array
T3 peptide: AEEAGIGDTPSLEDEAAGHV
Method: (§2) The binding of antibodies (recombinantly expressed as IgG2a) to each of the synthesized peptides was tested in a pepscan-based ELISA. The peptide arrays were incubated with primary antibody solution (overnight at 4° C.). After washing, the peptide arrays were incubated with a 1/1000 dilution of an appropriate antibody peroxidase conjugate (SBA) for one hour at 25° C. After washing, the peroxidase substrate 2,2′-azino-di-3-ethylbenzthiazoline sulfonate (ABTS) and 20 μl/ml of 3 percent H2O2 were added. After one hour, the color development was measured. The color development was quantified with a charge coupled device (CCD)—camera and an image processing system.

[5] = biological target: T4, 121 140 …; assay: as above
T4 construct: Linear 20-mer made on the solid support of the pepscan array; also called Tau441 peptide 121-140
T4 peptide: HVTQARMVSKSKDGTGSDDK
Method: as §2

[6] = biological target: T5, 105 124 …; assay: as above
T5 construct: Linear 20-mer made on the solid support of the pepscan array; also called Tau441 peptide 105-124
T5 peptide: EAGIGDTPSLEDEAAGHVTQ
Method: as §2

[7] = biological target: T6, 107 126 …; assay: as above
T6 construct: Linear 20-mer made on the solid support of the pepscan array; also called Tau441 peptide 107-126
T6 peptide: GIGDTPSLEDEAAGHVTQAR
Method: as §2

[8] = biological target: T7, 109 128 …; assay: as above
T7 construct: Linear 20-mer made on the solid support of the pepscan array; also called Tau441 peptide 109-128
T7 peptide: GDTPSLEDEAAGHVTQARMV
Method: as §2

[9] = biological target: T8, 111 130 …; assay: as above
T8 construct: Linear 20-mer made on the solid support of the pepscan array; also called Tau441 peptide 111-130
T8 peptide: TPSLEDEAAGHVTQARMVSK
Method: as §2

[10] = biological target: T9, 113 132 …; assay: as above
T9 construct: Linear 20-mer made on the solid support of the pepscan array; also called Tau441 peptide 113-132
T9 peptide: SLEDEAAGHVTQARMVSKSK
Method: as §2

[11] = biological target: T10, 115 134 …; assay: as above
T10 construct: Linear 20-mer made on the solid support of the pepscan array; also called Tau441 peptide 115-134
T10 peptide: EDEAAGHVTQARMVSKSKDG
Method: as §2

[12] = biological target: T11, 117 136 …; assay: as above
T11 construct: Linear 20-mer made on the solid support of the pepscan array; also called Tau441 peptide 117-136
T11 peptide: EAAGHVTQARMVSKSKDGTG
Method: as §2

[13] = biological target: T12, 119 138 …; assay: as above
T12 construct: Linear 20-mer made on the solid support of the pepscan array
T12 peptide: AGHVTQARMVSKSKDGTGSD
Method: as §2

[14] = biological target: T2, soluble tau (control tau; recombinant …); assay: SPR (ProteOn XPR36 or Biacore T200); central value of the cell
[15] = biological target: T2, soluble tau (control tau; recombinant …); assay: ELISA on coated soluble tau, anti-human Fc:HRP, 5-fold dilutions from 5 ug/ml
Method: Colonies from this electroporation were picked for the ELISA screen and assessment of Fab expression. Briefly, Maxisorp 96 well plates were coated with soluble Tau protein. Fab colonies were grown in 2×YT media and Fab expression was induced with IPTG. ELISA plates were washed and Fab secreted into the E. coli media was added to each ELISA plate. Plates were washed and Anti-Fab′2:HRP (Jackson ImmunoResearch) was added to the ELISA plates. Plates were washed and chemiluminescent detection reagent was added and plates were read on a Perkin Elmer EnVision plate reader for luminescence.
Positive clones were sequenced in both VH and VL. Unique sequences were cloned into IgG gene expression constructs for expression and purification as full length IgG1 molecules. IgG constructs were transfected into CHO-Expi cells and IgG protein was purified using MabSelectSure resin. Antibodies were then tested in an ELISA for binding to soluble Tau, using anti-human Fc:HRP (Jackson ImmunoResearch), to detect IgG binding.
The ELISA was done as described for Fabs except that antibodies were tested at five 5-fold dilutions starting at 5 μg/mL in PGS and anti-human Fc:HRP (Jackson ImmunoResearch) was used to detect IgG binding.

B1: PT82 mAb, recombinantly expressed (mouse IgG2a/kappa) (antibody, V domains shown)
VH: EVKLEESGGGLVQPGGSMKLSCVASGFTFSNYWMNWIRQSPEKGLEWVAQIRLQSDNYATRYAESVKGRFTISRDESKTSVYLQMNNLRTEDTGIYYCTGGTTYWGQGTLVTVSA
VL: DIVMTQSQKFMSTSVGDRVSITCKASQNVGTAVAWYQQKPGQSPKLLIYSASIRYTGVPDRFTGSGSGTDFTLTINYMQSEDLADYFCQQFSSYPYTFGGGTKLEIK
notes: also called recombinant PT82; murine PT82
Kd [1]: 2.85 nM
EC50 (read off the curve) [2]: ~0.05 µg/mL
EC50 (read off the curve) [3]: ~0.01 µg/mL
pepscan ELISA signal (PT82) [4]: 68
pepscan ELISA signal (PT82) [5]: 68
pepscan ELISA signal (PT82) [6]: 2900
pepscan ELISA signal (PT82) [7]: 2920
pepscan ELISA signal (PT82) [8]: 2920
pepscan ELISA signal (PT82) [9]: 2930
pepscan ELISA signal (PT82) [10]: 2930
pepscan ELISA signal (PT82) [11]: 2920
pepscan ELISA signal (PT82) [12]: 2920
pepscan ELISA signal (PT82) [13]: 2910

B2: PT82 Fab (chimeric: mouse variable domains on human IgG1/kappa constant domains, His tag at the C-terminus of the heavy chain) (Fab, V domains shown)
VH: B1 VH
VL: B1 VL
notes: The Fab has mouse variable domains fused to human IgG1/kappa constant domains, with a His tag at the C-terminus of the heavy chain; also called Fab fragment of PT82
Kd [1]: 5.01 nM
Kd [14]: 1.84 nM

B3: PT82 from hybridoma supernatant (hybridoma-produced mouse monoclonal antibody) (antibody, V domains shown)
VH: B1 VH
VL: B1 VL
notes: This is the native hybridoma antibody; also called hybridoma produced PT82
EC50 (read off the curve) [2]: ~0.02 µg/mL
EC50 (read off the curve) [3]: ~0.004 µg/mL

B4: PT1B779 (humanized PT82, full length IgG1) (antibody, V domains shown)
VH: EVQLVESGGGLVQPGGSLRLSCAASGFTFSNYWMNWIRQAPGKGLEWVGQIRLQDDNYATRYAASVKGRFTISRDDSKNSVYLQMNSLKTEDTAVYYCTGGTTYWGQGTLVTVSS
VL: DIQMTQSPSFLSASVGDRVTITCKASQNVGTKVAWYQQKPGKAPKLLIYSASIRYTGVPSRFSGSGSGTEFTLTISSMQPEDFATYYCQQFSSYPYTFGQGTKLEIK
binding result [15]: binds

B5: PT1B780 (humanized PT82, full length IgG1) (antibody, V domains shown)
VH: B4 VH with D55S, V81L
VL: B4 VL with M78L
binding result [15]: binds

B6: PT1B782 (humanized PT82, full length IgG1) (antibody, V domains shown)
VH: B4 VH with D55Y
VL: B4 VL with M4L
binding result [15]: binds

B7: PT1B781 (humanized PT82, full length IgG1) (antibody, V domains shown)
VH: B4 VH with D55R
VL: B4 VL
binding result [15]: binds

B8: PT1B778 (humanized PT82, full length IgG1) (antibody, V domains shown)
VH: B4 VH with D55S, A59V
VL: B4 VL with K32R
binding result [15]: binds
